Assay results taken from patent US20190162720A1.
One block for each substance: values may come before it.

Legend:
[1] = target: C-Reactive protein (CRP, R&D Systems, Inc., 1707-CR-200, Mouse myeloma cell line) (UniProt P02741); experiment: SPR Biacore T200; CRP 1.0 µg/mL fed over antibody held through protein G (Example 6)
[2] = target: C-Reactive protein (CRP, R&D Systems, Inc., 1707-CR-200, Mouse myeloma cell line) (UniProt P02741); experiment: SPR Biacore T200; CRP 1.0 µg/mL fed over antibody held through protein A/G (6) (Example 7)
[3] = target: C-Reactive protein (CRP, R&D Systems, Inc., 1707-CR-200, Mouse myeloma cell line) (UniProt P02741); experiment: SPR Biacore T200; CRP 1.0 µg/mL fed over antibody held through protein A/G (8) (Example 8)
[4] = target: C-Reactive protein (CRP, R&D Systems, Inc., 1707-CR-200, Mouse myeloma cell line) (UniProt P02741); experiment: SPR Biacore T200; CRP 1.0 µg/mL fed over antibody held through protein A/G (6) (Example 9)
[5] = target: C-Reactive protein (CRP, R&D Systems, Inc., 1707-CR-200, Mouse myeloma cell line) (UniProt P02741); experiment: SPR Biacore T200; CRP 1.0 µg/mL fed over antibody held through protein A/G (6) (Example 10)
[6] = target: C-Reactive protein (CRP, R&D Systems, Inc., 1707-CR-200, Mouse myeloma cell line) (UniProt P02741); experiment: SPR Biacore T200; CRP 1.0 µg/mL fed over antibody held through protein A/G (8) (Example 11)
[7] = target: C-Reactive protein (CRP, R&D Systems, Inc., 1707-CR-200, Mouse myeloma cell line) (UniProt P02741); experiment: SPR Biacore T200; CRP 1.0 µg/mL fed over antibody held through protein A/G (6) (Example 12)
[8] = target: C-Reactive protein (CRP, R&D Systems, Inc., 1707-CR-200, Mouse myeloma cell line) (UniProt P02741); experiment: SPR Biacore T200; CRP 1.0 µg/mL fed over antibody held through protein A/G (6) (Example 13)
[9] = target: C-Reactive protein (CRP, R&D Systems, Inc., 1707-CR-200, Mouse myeloma cell line) (UniProt P02741); experiment: SPR Biacore T200; CRP 1.0 µg/mL fed over antibody held through protein A/G (6) (Example 14)
[10] = target: C-Reactive protein (CRP, R&D Systems, Inc., 1707-CR-200, Mouse myeloma cell line) (UniProt P02741); experiment: SPR Biacore T200; CRP 1.0 µg/mL fed over antibody held through protein A/G (6) (Example 15)
[11] = target: C-Reactive protein (CRP, R&D Systems, Inc., 1707-CR-200, Mouse myeloma cell line) (UniProt P02741); experiment: SPR Biacore T200; CRP 1.0 µg/mL fed over antibody held through protein A/G (6) (Example 16)
[12] = target: C-Reactive protein (CRP, R&D Systems, Inc., 1707-CR-200, Mouse myeloma cell line) (UniProt P02741); experiment: SPR Biacore T200; CRP 1.0 µg/mL fed over antibody held through protein A/G (6) (Example 17)
[13] = target: C-Reactive protein (CRP, R&D Systems, Inc., 1707-CR-200, Mouse myeloma cell line) (UniProt P02741); experiment: SPR Biacore T200; CRP 1.0 µg/mL fed over antibody coupled covalently (EDC/s-NHS) to the SAM; corrected with anti-IL6 reference interface (Comparative Example 2)
[14] = target: anti-biotin monoclonal antibody (Abcam plc., ab36406, Mouse monoclonal); experiment: SPR Biacore T200; protein G 40 µg/mL fed over anti-biotin monoclonal antibody on the chip (Example 6)
[15] = target: anti-CRP antibody (R&D Systems, Inc., Human C-Reactive protein Antibody, Monoclonal Mouse IgG2B, MAB17071-500); experiment: SPR Biacore T200; anti-CRP antibody 100 µg/mL fed over protein G held on the first antibody (Example 6)
[16] = target: anti-CRP antibody (R&D Systems, Inc., Human C-Reactive protein Antibody, Monoclonal Mouse IgG2B, MAB17071-500); experiment: SPR Biacore T200; anti-CRP antibody 100 µg/mL fed over protein A/G (8) held on the first antibody (Example 8)
[17] = target: anti-CRP antibody (R&D Systems, Inc., Human C-Reactive protein Antibody, Monoclonal Mouse IgG2B, MAB17071-500); experiment: SPR Biacore T200; anti-CRP antibody 100 µg/mL fed over protein A/G (8) held on anti-mPEG antibody (Example 11)
[18] = target: anti-mPEG monoclonal antibody (Abcam plc., ab51257, Mouse monoclonal, Anti-Polyethylene glycol antibody [PEG-B-47]); experiment: SPR Biacore T200; protein A/G (eight domains) 119 µg/mL fed over anti-mPEG antibody on the mPEG chip (Example 11)
[19] = target: anti-biotin monoclonal antibody (Abcam plc., ab36406, Mouse monoclonal); experiment: SPR Biacore T200; protein A/G (eight domains) 30 µg/mL fed over anti-biotin monoclonal antibody on the chip (Example 8)

Sequence of UniProt P02741 (P02741 19-224 limits assumed): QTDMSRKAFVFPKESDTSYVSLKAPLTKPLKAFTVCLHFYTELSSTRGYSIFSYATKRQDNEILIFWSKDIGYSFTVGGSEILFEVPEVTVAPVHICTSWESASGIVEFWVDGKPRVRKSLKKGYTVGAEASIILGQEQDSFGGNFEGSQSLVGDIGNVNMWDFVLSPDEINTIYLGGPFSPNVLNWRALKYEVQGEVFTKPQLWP

Amount of antigen bound [1]: 513 RU | Amount of antigen bound [2]: 422 RU | Amount of antigen bound [3]: 745 RU | Amount of antigen bound [4]: 408 RU | Amount of antigen bound [5]: 663 RU | Amount of antigen bound [6]: 536 RU | Amount of antigen bound [7]: 508 RU | Amount of antigen bound [8]: 560 RU | Amount of antigen bound [9]: 630 RU | Amount of antigen bound [10]: 519 RU | Amount of antigen bound [11]: 514 RU | Amount of antigen bound [12]: 481 RU | Amount of antigen bound [13]: 284 RU
Substance: anti-CRP antibody (R&D Systems, Inc., Human C-Reactive protein Antibody, Monoclonal Mouse IgG2B, MAB17071-500)

amount of the protein G immobilized [14]: 841 RU | Amount of second antibody immobilized [15]: 2010 RU
Substance: protein G (BioVision Incorporated, 6501, recombinant protein G, three domains)

Amount of second antibody immobilized [16]: 3460 RU | Amount of second antibody immobilized [17]: 3210 RU | amount of the protein A/G immobilized [18]: 820 RU | amount of the protein A/G immobilized [19]: 868 RU
Substance: protein A/G (BioVision Incorporated, 6502, Recombinant Protein A/G from E. coli, eight domains)
